Experimental data published in patent publication US20170226172A1.

B1: Wild Type Human FGF23 c-tail 180-251 (72 amino acid peptide) (peptide)
peptide: SAEDDSERDPLNVLKPRARMTPAPASCSQELPSAEDNSPMASDPLGVVRGGRVNTHAGGTGPEGCRPFAKFI
B2: N-terminal FGF23 c-tail Fc fusion (Fc fusion, not shown: a dimerising Fc or GST; small tags and cut ends)
chain: B1 peptide

Target: FGFR1c/alpha-klotho receptor complex, human, pre-formed (SPR analyte) (human) (UniProt P11362)
Assay: SPR competition: FGF23 on the chip surface, FGFR1c-alphaKlotho complex in solution mixed with the competitor; Ki listed at the upper right of the sheet

Binder | Ki
B1 | 31 nM
B2 | 46 nM
